The target in data set [1] is T1, GST-MAC3A (Arabidopsis thaliana (Col), UniProt Q94BR4 1-523).
T1 sequence: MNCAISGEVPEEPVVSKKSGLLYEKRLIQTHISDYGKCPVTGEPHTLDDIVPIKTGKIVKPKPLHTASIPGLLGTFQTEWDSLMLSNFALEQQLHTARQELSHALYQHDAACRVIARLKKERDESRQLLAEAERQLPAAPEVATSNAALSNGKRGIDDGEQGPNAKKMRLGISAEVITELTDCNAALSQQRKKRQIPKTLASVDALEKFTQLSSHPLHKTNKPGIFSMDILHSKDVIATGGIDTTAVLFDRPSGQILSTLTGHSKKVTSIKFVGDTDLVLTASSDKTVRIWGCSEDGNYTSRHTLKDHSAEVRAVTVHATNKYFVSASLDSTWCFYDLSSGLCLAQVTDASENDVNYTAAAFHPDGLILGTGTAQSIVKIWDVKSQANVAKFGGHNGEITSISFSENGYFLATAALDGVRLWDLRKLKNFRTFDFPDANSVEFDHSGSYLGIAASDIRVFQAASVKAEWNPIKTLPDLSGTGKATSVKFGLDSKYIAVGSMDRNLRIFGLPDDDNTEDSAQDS
Briefly: FLISA.

Data set [2] addresses T1, GST-MAC3A. The experiment in a line: competition FLISA.
Data set [3] addresses T1, GST-MAC3A. The experiment in a line: competition FLISA. This is another data set of the same source.

Data on 4 molecules can be found in PMC10411877.

B1: pYUC8biotin (dsDNA)
DNA 1: CCTCTCCACGTGGCTTCCATTC
DNA 2: GAATGGAAGCCACGTGGAGAGG
On to B1, for which the binding result in data set [1] is “binds”.

B2: cold pYUC8 (dsDNA)
DNA 1: CCTCTCCACGTGGCTTCCATTC
DNA 2: GAATGGAAGCCACGTGGAGAGG
Take B2: in data set [2], the binding result is given as “binds”.

B3: pIAA19biotin (dsDNA)
DNA 1: AATGACTCCACGTGTCGATATTG
DNA 2: CAATATCGACACGTGGAGTCATT
Turning to B3, the binding result in data set [1] was “binds”.

B4: cold pIAA19 (dsDNA)
DNA 1: ATCTGTTCCCTTAACCACCTTGT
DNA 2: ACAAGGTGGTTAAGGGAACAGAT
For the molecule B4, the binding result in data set [3] is on record as “binds”.
